Substitutions are numbered along the chain they refer to.
B1: JN226 (antibody, V domains shown)
VH: QVQLVQSGAEVKKPGSSVKVSCKASGGTFSSYAISWVRQAPGQGLEWMGGIIPIFGTANYAQKFQGRVTITADKSTSTAYMELSSLRSEDTAVYYCAMLGAGSPLRGIFGVVMTDGDGMDVWGQGTTVTVSS
VL: QSVLTQPPSVSAAPGQKVTISCSGSSSNIGNNYVSWYQQLPGTAPKLLIYDNNKRPSGIPDRFSGSKSGTSATLGITGLQTGDEADYYCGTWDSSLSAGRVFGGGTKLTVL
B2: JN005 (antibody, V domains shown)
VH: QVQLVESGGGLVEPGGSLRLSCAASGFTFSDYFMSWIRQAPGRGLEWVSFITTSGSTIYYADSVKGRFTISRDNAKNSLYLQMNSLRAEDTAVYYCARRSGGYYDILTGPYGLDVWGQGTTVTVSS
VL: not shown
B3: JN028 (antibody, V domains shown)
VH: EVQLVESGGGLVQPGGSLRLSCAASGFTFSSYSMNWVRQAPGKGLEWVSYISSSSSTIYYADSVKGRFTISRDNAKNSLYLQMNSLRDEDTAVYYCAPLRVLGGMDVWGQGTTVTVSS
VL: SYELTQPPSVSVSPGQTARIICSGDALPKQYAYWYQQKPGQAPVLVIYKDSERPSGIPERFSGSSSGTTVTLTISGVQAEDEADYYCQSADSSGWVFGGGTKLTVL
B4: JN225 (antibody, V domains shown)
VH: EVQLVESGGGLVQPGGSLRLSCGASGFTLGSFWMHWVRQAPGKGLEWVGDINGDGSAKYYADSVRGRFTISRDNAENSLFLQMNSLRVEDTALYYCARGAAWLDYWGQGTLVTVSS
VL: QSALTQPASVSGSPGQSITISCTGTSSDVGGYNYVSWYQQHPGKAPKLIIYDVTNRPSGVSNRFSGSKSGNTASLTISGLQAEDEADYFCDSYRSSSPPSYVFGTGTKVTVL
B5: JN018 (antibody, V domains shown)
VH: QVQLQESGPGLVKPSETLSLTCTVSGGSISGSYWSWMRQPAGKPLEWIGRIYVSGSYNRNPSLSSRVTVSEDTAKNQISLRLTSVTAADTAVYYCAREIMGWYFDLWGRGTLVTVSS
VL: EIVMTQSPGTLSVSPGERATLSCRASQSVRSSLAWYQQKPGQAPRLLIYDASTRATGIPARFSGSGSGTEFTLTISSLQSEDFAIYLCQQYYNWPSYTFTQGTKLEIK
B6: JN013 (antibody, V domains shown)
VH: QLQLQESGPGLVKPSETLSLTCTVSGGSISSSSYYWGWIRQPPGKGLEWIGSIYYSGSTYYNPSLKSRVTISVDTSKKQFSLKLSSVTAADTAVYYCARTYYDYIWGSLLGDFWGQGTLVTVSS
VL: QSALTQPRSVSGSPGQSVTISCTGTSSDVGGYNYVSWYQQHPGKAPKLMIYDVSKRPSGVPDRFSGSKSGNTASLTISGLQAEDEADYYCCSYAGSYWVFGGGTKLTVL
B7: JN017 (antibody, V domains shown)
VH: EVQLVESGGGLVQPGGSLRLSCAASGFTFTNHWMTWVRQAPGRGLEWVANIEGDGSDKYYVDSVKGRFTISRDNAKYSLYLHMNSLRGEDTAVYYCARHSGTYHGLDYWGQGTLVTVSS
VL: B6 VL with Q40E, G66S, C91Y, S92A, Y93F, S96T, Y97T, V99M
B8: JN003 (antibody, V domains shown)
VH: EVQLVESGGGLVQPGGSLRLSCAASGFTFNSYWMTWIRQAPGKGLEWVANIAPDGSDTYYVDSVRGRFIISRDNAKNSLYLHMNSLRPEDTAVYYCANTPAAVGEYWGQGTLVTVSS
VL: QAVVTQEPSLSVSPGGTVTVTCGLSSGSVSTNNYPTWYQQTPGQPPRTLMYSTNTRSPGVLDRFSGSILGNKAALTITGAQADDESHYYCVLLVGSGANAKWVFGGGTKLTVL
B9: JN232 (antibody, V domains shown)
VH: EVQLVQSGAEVKKPGESLNISCKGSGYSFTNYWIGWVRQMPGKGLEWMGIIYPGDSDTRYSPSFQGQVTISADKSISTVFLQWSSLKASDTAMYYCVRHDVLAVLMGGVTFDIWGQGTMVTVSS
VL: EIVLTQSPGTLSLSPGERATLSCRASQSISSSYLAWYQQKSGQAPRLLIYGASSRATGIPDRFSGSGSGTDFTLTISRLEPEDFAVYYCQQYGGSPMYTFGQGTKLEIK
B10: JN033 (antibody, V domains shown)
VH: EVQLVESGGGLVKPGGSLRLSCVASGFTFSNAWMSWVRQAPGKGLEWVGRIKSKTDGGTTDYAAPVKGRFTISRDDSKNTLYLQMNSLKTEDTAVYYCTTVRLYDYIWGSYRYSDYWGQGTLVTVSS
VL: DIQLTQSPFSLSASVGDRVTITCRASQGISSYLAWYQQKPGKAPKLLIYAASTLQSGVPSRFSGSGSGTEFTLTISSLQPEDFATYYCQQLNSYPPNTFGPGTKVDIK
B11: JN030 (antibody, V domains shown)
VH: EVQLVESGGGLVKPGGSLRLSCAASGFTFSNYNMNWVRQAPGKGLEWVSSISTSGSFIYYADSVKGRFTISRDNAKNSLYLQMNSLRAEDTAVYYCARDTTPYSSGWYLWYFDLWGRGTLVTVSS
VL: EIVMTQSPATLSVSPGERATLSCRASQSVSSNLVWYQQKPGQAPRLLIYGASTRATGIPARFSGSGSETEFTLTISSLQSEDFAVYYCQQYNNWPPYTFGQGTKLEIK
B12: JN012 (antibody, V domains shown)
VH: QLQLQESGPGLVKPSETLSLTCTVSGGSISSGSYYWVWIRQPPGKGLEWIGSVYYSGTTYYNPSLKSRVTISIDTSKNQFSLRLSSVTAADTAVYYCATNNYSFLTGYYVLDYWGQGTLVTVSS
VL: SYELTQPPSVSVSLGQMARITCSGEALPKTYAYWYQQKPGQFPVLVIYKDSERPSGIPERFSGSRSGTIVTLTISGVQAEDEADYYCLSTDISGTWVFGGGTKLTVL
B13: JN223 (antibody, V domains shown)
VH: EVQLLESGGGLVQPGGSLRLSCAASRFTFSNFAMSWVRQAPGKGLEWVSAISGSGGSTYYADSVKGRFIISRDNSKNTLFLQMNSLRAEDTAVYFCAKDLPYDNTGARFDYWGQGTLVTVSS
VL: SYELTQPPSVSVSPGQTARITCSGDALPKKYAYWYQQKSGQAPVLVIYEDSKRPSGIPERFSGSSSGTMATLTISGAQVEDEADYYCYSTDSTGNHRGVFGGGTKLTVL
B14: JN219 (antibody, V domains shown)
VH: QLQLQESGPGLVKPSETLSLTCTVSGGSISSSSYYWGSYYWGWIRQPPGKGLEWIASIYYSGTTYYNPSLKSRVTISVDTSKNQFSLKLSSVTAADTAVYYCASRYCSGGSCSLDYWGQGTLVTVSS
VL: QSALTQPRSLSGSPGQSVTISCTGTSSDVGSYNYVSWYQQHPGKAPKLMIYDVSKRPSGVPDRFSGSKSGNTASLTISGLQAEDEADYYCCSYAGSYTLWVFGGGTKLTVL
B15: JN015 (antibody, V domains shown)
VH: QLQLQESGPGLVKPSETLSLTCTVSGGSISGSSYYWGWIRQPPGKGLEWFGSIYYSGTTYYNPSLKSRVAISVDTSKKQFSLKLSSVTAADTAVYYCAARYFDWSVEYWGQGTLVTVSS
VL: B14 VL with L10V, S31G, H41Q, Y89H, L99Y, V101L
B16: JN236 (antibody, V domains shown)
VH: QVQLQESGPRLVKPSETLSLTCTVSGGSINDYYWSWIRQPPGKGLEYLGYIYYTGTTNYNPSLQSRLTMSVDTSKNQFSLKVNYVSAADTAVYYCARHSTGGSYPLDSWGRGILVTVSS
VL: DIVMTQSPLTLPVTPGEPASISCRSSQSLLHSNGHNYVDWYLQKPGQSPQLLIHLGSNRASGVPDRFSGSGSGTDFTLKISRVEAEDVGVYFCMQALQSRTFGQGTKVEIK
B17: JN026 (antibody, V domains shown)
VH: QVQLQESGPGLVKPSETLSLTCTVSGGSISSYYWSWIRQPPGKGLEWIGYIYYSGSTNYNPSLKSRVTISVDTSKNQFSLKLSSVTAADTAVYYCARHSLTYYYDRSDYKGAFDIWGQGTMVTVSS
VL: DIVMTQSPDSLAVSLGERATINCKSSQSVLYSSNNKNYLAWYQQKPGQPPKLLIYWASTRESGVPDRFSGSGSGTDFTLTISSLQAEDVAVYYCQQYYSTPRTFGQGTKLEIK
B18: JN022 (antibody, V domains shown)
VH: B17 VH with G27D, S30R, S31N, I48M, R106S
VL: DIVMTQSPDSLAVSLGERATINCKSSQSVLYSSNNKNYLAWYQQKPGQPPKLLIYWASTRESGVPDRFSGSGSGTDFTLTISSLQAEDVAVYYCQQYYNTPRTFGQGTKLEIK
B19: JN222 (antibody, V domains shown)
VH: EVQLVESGGGLVQPGGSLRLSCAASGFTFSRYWMSWVRQAPGKGLEWVANIKGDGKYYVDSLKGRFTISGDNAENSLYLQMNSLRAEDTAMYYCARYLAETGALDIWGQGTMVTVSS
VL: QSALTQPRAVSGSPGQSVTISCTGTSSDVGGYNYVSWYQQHPGKAPKLMIYDVSKRPSGVPDRFSGSKSGNTASLTISGLQAEDEADYYCYSFSGRYTSYVFGIGTKVTVL
B20: JN008 (antibody, V domains shown)
VH: EVQLVESGGDLIQPGGSLRLSCAASGFTVSSNYMNWVRQAPGKGLEWVSIIYSGGSTFYADSVKGRFTISRDNSKNTLYLQMNSLRVEDTATYFCARSYGDYYFDSWGQGTLVTVSS
VL: EIVLTQSPATLSLSPGERATLSCRASQSVSSYLAWYQQKPGQAPRLLIYDASNRATGIPARFSGSGSGTDFTLTISSLEPEDFAVYYCQQRSNWPPSFTFGPGTKVDIK
B21: JN218 (antibody, V domains shown)
VH: EVQLVESGGGLVKPGGSLRLSCAASGFTFSSYTMNWVRQAPGKGLEWVSSISTGSSNIYYTDSVKGRFTISRDNARNSLSLQMNSLRAEDTAVYYCAREGRFIGTGYWSDFSYALDVWGQGTTVTVSS
VL: EIVLTQSPGTLSLSPGERATLSCRASQSVSSSSLAWYQQTPGQAPRLLIYGASSRATGIPDRFSGSGSGTDFTLTISRLEPEDFAVYYCQQYGSSVGAFGQGTKLEIK
B22: JN229 (antibody, V domains shown)
VH: QVQLVQSGAEVKKPGSSVKVSCKASGGRFSSTAISWVRQAPGQGLEWMGGIIPIFGAPTDVQKFQGRVTITADQSTSTAYMELSNLRSEDTAVYYCATLGNYDFLTGNTFSYFDYWGQGTLVTVSS
VL: NFMLTQPHSVSESLGKTVTISCTRTSGSIASDYVQWYQQRPGSSPTTVIYENFQRPSGVPDRFSASVDSSSNSASLTISGLRAEDEADYYCQSHDRSDFLPVFGGGTQLTVL
B23: JN227 (antibody, V domains shown)
VH: QLQLQESGPGLVKPSETLSLTCTVSGGSISSSSYYWGWIRQPPGKGLEWIGSIYYSGSTYYNPSLKSRVTISVDTSKNQFSLKLSSVTAADTAVYYCAREGVITIFGVAQFDYWGQGTLVTVSS
VL: not shown

Target: SARS-CoV-2 Wuhan-Hu-1 NTD (SARS-CoV-2, UniProt P0DTC2 14-307)
Experiment: cell-based or functional assay

| Binder | neutralisation IC50, WT (293TAce2) [µg/mL] |
| --- | --- |
| B1 | > 1 |
| B2 | > 1 |
| B3 | > 1 |
| B4 | > 1 |
| B5 | > 1 |
| B6 | > 1 |
| B7 | > 1 |
| B8 | > 1 |
| B9 | > 1 |
| B10 | > 1 |
| B11 | 0.348 |
| B12 | > 1 |
| B13 | > 1 |
| B14 | > 1 |
| B15 | > 1 |
| B16 | > 1 |
| B17 | > 1 |
| B18 | > 1 |
| B19 | > 1 |
| B20 | > 1 |
| B21 | > 1 |
| B22 | > 1 |
| B23 | > 1 |
